Source: US20140212425A1
Blank lines part the entries; values can stand above or below the molecule they belong to.

How the values were obtained:
[1] = molecular target: CD20 on cells (Daudi cells, B cells in PBMCs) (human) (UniProt P11836); assay: cell-based or functional assay
[2] = molecular target: Soluble single-chain FcRn (extracellular domain of the human FcRn heavy chain fused with β2-microglobulin via a flexible peptide linker) (human) (UniProt P55899); assay: SPR, scFcRn immobilised, pH 6.0
[3] = molecular target: Soluble single-chain FcRn (extracellular domain of the human FcRn heavy chain fused with β2-microglobulin via a flexible peptide linker) (human) (UniProt P55899); assay: SPR (BIACORE X), scFcRn on CM5 chip, pH 6.0, two-state reaction model; mean of 3 runs, S.D. 21.5
[4] = molecular target: Soluble single-chain FcRn (extracellular domain of the human FcRn heavy chain fused with β2-microglobulin via a flexible peptide linker) (human) (UniProt P55899); assay: SPR (BIACORE X), scFcRn on CM5 chip, pH 6.0, two-state reaction model; mean of 3 runs, S.D. 0.0024
[5] = molecular target: Soluble single-chain FcRn (extracellular domain of the human FcRn heavy chain fused with β2-microglobulin via a flexible peptide linker) (human) (UniProt P55899); assay: SPR (BIACORE X), scFcRn on CM5 chip, pH 6.0, two-state reaction model; mean of 3 runs, S.D. 2.72 × 10^4
[6] = molecular target: Soluble single-chain FcRn (extracellular domain of the human FcRn heavy chain fused with β2-microglobulin via a flexible peptide linker) (human) (UniProt P55899); assay: SPR (BIACORE X), scFcRn amine-coupled to CM5 chip, antibody 25-400 nM as analyte, pH 6.0, two-state reaction model; Run 1
[7] = molecular target: Soluble single-chain FcRn (extracellular domain of the human FcRn heavy chain fused with β2-microglobulin via a flexible peptide linker) (human) (UniProt P55899); assay: SPR (BIACORE X), scFcRn amine-coupled to CM5 chip, antibody 25-400 nM as analyte, pH 6.0, two-state reaction model; Run 2
[8] = molecular target: Soluble single-chain FcRn (extracellular domain of the human FcRn heavy chain fused with β2-microglobulin via a flexible peptide linker) (human) (UniProt P55899); assay: SPR (BIACORE X), scFcRn amine-coupled to CM5 chip, antibody 25-400 nM as analyte, pH 6.0, two-state reaction model; Run 3
[9] = molecular target: Soluble single-chain FcRn (extracellular domain of the human FcRn heavy chain fused with β2-microglobulin via a flexible peptide linker) (human) (UniProt P55899); assay: SPR (BIACORE X), scFcRn on CM5 chip, pH 6.0, two-state reaction model; mean of 3 runs, S.D. 1.5
[10] = molecular target: CD22 on cells (B cells in PBMCs, Daudi, D1-1 cells) (human) (UniProt P20273); assay: cell-based or functional assay

Sequence of CD20 on cells (Daudi cells, B cells in PBMCs) (human) (P11836 whole entry, the tested form may be a part): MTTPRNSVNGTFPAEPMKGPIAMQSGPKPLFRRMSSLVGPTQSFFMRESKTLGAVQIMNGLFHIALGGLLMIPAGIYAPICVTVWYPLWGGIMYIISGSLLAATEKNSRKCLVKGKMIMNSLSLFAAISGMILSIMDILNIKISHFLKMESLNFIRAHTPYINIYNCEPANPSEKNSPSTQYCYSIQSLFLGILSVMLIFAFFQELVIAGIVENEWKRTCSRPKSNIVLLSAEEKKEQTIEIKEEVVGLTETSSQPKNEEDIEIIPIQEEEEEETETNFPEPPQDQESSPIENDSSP

Molecule: 20*-2b (Ck-AD2-IgG-veltuzumab conjugated with IFNα2b-DDD2) (from UniProt P01563 24-188)
cytotoxicity in Daudi cells, EC50 (MTS assay, 3 days) [1]: 0.2 µM

Molecule: 20-2b (CH3-AD2-IgG-veltuzumab conjugated with IFNα2b-DDD2) (from UniProt P01563 24-188)
cytotoxicity in Daudi cells, EC50 (MTS assay, 3 days) [1]: 0.2 µM

Kd [2]: 0.155 µM
fold stronger binding affinity than 22-(20)-(20) [2]: 2 fold
Kd [3]: 0.166 µM
koff [4]: 0.0413 s⁻¹
kon [5]: 251000 M⁻¹ s⁻¹
Kd [6]: 0.141 µM
koff [6]: 0.0395 s⁻¹
kon [6]: 280000 M⁻¹ s⁻¹
Kd [7]: 0.179 µM
koff [7]: 0.0404 s⁻¹
kon [7]: 226000 M⁻¹ s⁻¹
Kd [8]: 0.178 µM
koff [8]: 0.0441 s⁻¹
kon [8]: 248000 M⁻¹ s⁻¹
Molecule: 22*-(20)-(20), anti-CD22/CD20 bispecific hexavalent antibody (Ck-AD2-IgG-epratuzumab conjugated with CH1-DDD2-Fab-veltuzumab) (bispecific antibody)

Kd [7]: 0.267 µM
Kd [8]: 0.352 µM
Molecule: 22-(20)-(20), Fc-based anti-CD22/CD20 bispecific hexavalent antibody (CH3-AD2-IgG-epratuzumab conjugated with CH1-DDD2-Fab-veltuzumab) (bispecific antibody)

Kd [9]: 0.0163 µM
Kd [6]: 0.015 µM
Kd [7]: 0.0179 µM
Kd [8]: 0.0158 µM
Molecule: Epratuzumab (humanized anti-CD22 IgG1κ) (antibody)

CD22 level on the surface of B cells in PBMCs (% of isotype control MFI), 10 µg/mL [10]: 45 % control
B1: F(ab′)2 fragment of epratuzumab (protein, INN chains, looked up)
VH: QVQLVQSGAEVKKPGSSVKVSCKASGYTFTSYWLHWVRQAPGQGLEWIGYINPRNDYTEYNQNFKDKATITADESTNTAYMELSSLRSEDTAFYFCARRDITTFYWGQGTTVTVSS
VL: DIQLTQSPSSLSASVGDRVTMSCKSSQSVLYSANHKNYLAWYQQKPGKAPKLLIYWASTRESGVPSRFSGSGSGTDFTFTISSLQPEDIATYYCHQYLSSWTFGGGTKLEIK
modifications: F(ab')2
